Data set [1] addresses T1, T45S variant of human apolipoprotein C1 (low mass variant, m/z=6617/6618).
T1 chain: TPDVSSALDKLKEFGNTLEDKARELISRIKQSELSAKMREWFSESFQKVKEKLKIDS

Data set [2] addresses plasma peptide at m/z=5082±4.
Data set [3] deals with T2, human apolipoprotein C1, common form (m/z=6631).
T2 chain: T1 chain with S45T

Residue numbers refer to the chain shown, from its start.

B1: hog kidney dipeptidyl peptidase IV (DPPase IV), purchased from the Sigma Chemical Company (protein)
chain: DSRRTYTLTDYLKSTFRVKFYTLQWISDHEYLYKQENNILLFNAEYGNSSIFLENSTFDELGYSTNDYSVSPDRQFILFEYNYVKQWRHSYTASYDIYDLNKRQLITEERIPNNTQWITWSPVGHKLAYVWNNDIYVKNEPNLSSQRITWTGKENVIYNGVTDWVYEEEVFSAYSALWWSPNGTFLAYAQFNDTEVPLIEYSFYSDESLQYPKTVRIPYPKAGAENPTVKFFVVDTRTLSPNASVTSYQIVPPASVLIGDHYLCGVTWVTEERISLQWIRRAQNYSIIDICDYDESTGRWISSVARQHIEISTTGWVGRFRPAEPHFTSDGNSFYKIISNEEGYKHICHFQTDKSNCTFITKGAWEVIGIEALTSDYLYYISNEHKGMPGGRNLYRIQLNDYTKVTCLSCELNPERCQYYSASFSNKAKYYQLRCFGPGLPLYTLHSSSSDKELRVLEDNSALDKMLQDVQMPSKKLDVINLHGTKFWYQMILPPHFDKSKKYPLLIEVYAGPCSQKVDTVFRLSWATYLASTENIIVASFDGRGSGYQGDKIMHAINRRLGTFEVEDQIEATRQFSKMGFVDDKRIAIWGWSYGGYVTSMVLGAGSGVFKCGIAVAPVSKWEYYDSVYTERYMGLPTPEDNLDYYRNSTVMSRAENFKQVEYLLIHGTADDNVHFQQSAQLSKALVDAGVDFQTMWYTDEDHGIASNMAHQHIYTHMSHFLKQCFSLP
For B1, in data set [1], the “rate of enzyme cleavage (m/z=6618 conversion to m/z=6420) relative to the common form of apolipoprotein C1” value is 3.1 times the rate of degradation of the more common form of apolipoprotein C1. For the same protein, in data set [2], the “MALDI-TOF profile after 2 hours of digestion of diluted plasma with 1 unit of enzyme” value is recorded as “The 5082 peak had been completely digested to the 4885 peak”. Also, in data set [3], the “MALDI-TOF profile after incubation of human plasma with the enzyme (conversion of the 6631 peak to the 6433 peak)” value is “The enzyme converted all of the material in the peak at 6631 to material in the 6433 peak” and the “rate of enzyme cleavage (m/z=6631 conversion to m/z=6433), reference for the T45S variant” value is listed as “degradation of the more common form of apolipoprotein C1 (m/z=6631 conversion to m/z=6433)”.

These data come from US20070087448.
